We go through five molecules from patent publication US20200283528A1.

In assay [1] the target is Fc tagged human PDL1 (human) (UniProt Q9NZQ7). In words: SPR Biacore T200; PDL1-Fc captured; molecule 0.12-90 nM. For orientation: SPR reads the build-up and loss of mass on a sensor chip optically.
The target of assay [2] is human PDL1 (recombinant, soluble) (human) (UniProt Q9NZQ7). In words: PDL1/B7-1 competition ELISA; B7-1 coated, biotinylated PDL1 40 ng/ml. On the technique in general: In an ELISA, binding on a coated surface is turned into a signal by an enzyme label.
Assay [3] deals with human PDL1 expressed on cells (human) (UniProt Q9NZQ7). In words: cell-based or functional assay.
The target of assay [4] is human PDL1 (recombinant, soluble) (human) (UniProt Q9NZQ7). In words: PDL1/PD-1 competition ELISA; PD-1 coated, biotinylated PDL1 1 ng/ml.
Assay [5] addresses human CD137-Fc chimeric protein (human) (UniProt Q07011). In words: SPR Biacore T200; CD137-Fc captured; molecule as analyte.

B1: PRO1431 (scDb-scFv: 33-03-G02 sc18 / 38-02-A04 sc013 / 19-01-H04 sc03) (protein, from a related filing)
chain: DIQMTQSPSSLSASVGDRVTITCQASQSINDYLAWYQQKPGKAPKLLIYKASTLASGVPSRFSGSGSGTDFTLTISSLQPEDFATYYCQQGYIITDIDNVFGTGTKVTVLGGGGGSEVQLVESGGGLVQPGGSLRLSCAASGFSFSNSYWICWVRQAPGKCLEWIGCTFVGSSDSTYYANWAKGRFTISRDNSKNTVYLQMNSLRAEDTAVYYCARHPSDAVYGYANNLWGQGTLVTVSSGGGGSGGGGSGGGGSGGGGSIQMTQSPSSLSASVGDRVTITCQASQSINNVLAWYQQKPGKAPKLLIYRASTLASGVPSRFSGSGSGTDFTLTISSLQPEDFATYYCQSSYGNYGDFGCGTKVTVLGGGGGSQVQLQESGPGLVKPSETLSLTCKASGFSFSSGYDMCWVRQPPGKGLEWIACVVAGSVDITYYASWAKGRVTISKDSSKNQVSLKLSSVTAADTAVYYCARKDAYSDAFNLWGQGTLVTVSSGGGGSGGGGSIQMTQSPSSLSASVGDRVTITCQSSESVYSNNQLSWYQQKPGQPPKLLIYDASDLASGVPSRFSGSGSGTDFTLTISSLQPEDFATYYCAGGFSSSSDTAFGGGTKLTVLGGGGGSGGGGSGGGGSGGGGSEVQLVESGGGLVQPGGSLRLSCAASGFSLSSNAMGWVRQAPGKGLEYIGIISVGGFTYYASWAKGRFTISRDNSKNTVYLQMNSLRAEDTATYFCARDRHGGDSSGAFYLWGQGTLVTVSS
As a reminder, the Kd is the concentration at which binding is half-saturated. A high value points to a looser complex. Broadly, the koff is a measure of how fast the partners let go of each other. Low values mean slow dissociation, high ones fast dissociation. One may read the kon as the second-order rate constant of association. Read a low kon as slower complex formation. For orientation: IC50 means the concentration at which inhibition is half-maximal. As for B1, in assay [1], the Kd came out at 14 pM, the koff amounted to 4.5e-05 s⁻¹ and the kon amounted to 3.3e+06 M⁻¹ s⁻¹. In assay [2], the IC50 came out at 3.31 ng/mL and the rel. IC50 (IC50, Avelumab/IC50, test molecule) came to 0.84. In assay [3], this molecule yielded an NF-AT potency assay IC50 (with HSA) of 9.83 ng/mL and an NF-AT potency assay rel. IC50 (IC50, Avelumab/IC50, test molecule) (with HSA) of 3.73. Besides, in assay [4], the IC50 came out at 2.75 ng/mL and the rel. IC50 (IC50, Avelumab/IC50, test molecule) was found to be 0.51. Moreover, in assay [5], the Kd is 1.7 nM, the koff turned out to be 0.00075 s⁻¹ and the kon is 450000 M⁻¹ s⁻¹.

B2: PRO1473 (scDb-scFv: 33-03-G02 sc03 / 38-02-A04 sc013 / 19-01-H04 sc03) (protein, from a related filing)
chain: DFQLTQSPSSLSASVGDRVTITCQASQSINDYLAWYQQKPGKSPKLLIYKASTLASGVPSRFSGSGSGTDFTLTISSLQPEDFATYYCQQGYIITDIDNVFGTGTKVTVLGGGGGSEVQLVESGGGLVQPGGSLRLSCAASGFSFSNSYWICWVRQAPGKCLEWIGCTFVGSSDSTYYANWAKGRFTISRDNSKNTVYLQMNSLRAEDTAVYYCARHPSDAVYGYANNLWGQGTLVTVSSGGGGSGGGGSGGGGSGGGGSIQMTQSPSSLSASVGDRVTITCQASQSINNVLAWYQQKPGKAPKLLIYRASTLASGVPSRFSGSGSGTDFTLTISSLQPEDFATYYCQSSYGNYGDFGCGTKVTVLGGGGGSQSQLQESGPGLVKPSETLSLTCKASGFSFSSGYDMCWVRQPPGKGLEWIACVVAGSVDITYYASWAKGRVTISKDSSKNQVSLKLSSVTAADTAVYFCARKDAYSDAFNLWGQGTLVTVSSGGGGSGGGGSIQMTQSPSSLSASVGDRVTITCQSSESVYSNNQLSWYQQKPGQPPKLLIYDASDLASGVPSRFSGSGSGTDFTLTISSLQPEDFATYYCAGGFSSSSDTAFGGGTKLTVLGGGGGSGGGGSGGGGSGGGGSEVQLVESGGGLVQPGGSLRLSCAASGFSLSSNAMGWVRQAPGKGLEYIGIISVGGFTYYASWAKGRFTISRDNSKNTVYLQMNSLRAEDTATYFCARDRHGGDSSGAFYLWGQGTLVTVSS
On to B2, for which, in assay [1], the Kd worked out at 8.2 pM, the koff was determined as 2.9e-05 s⁻¹ and the kon worked out at 3.6e+06 M⁻¹ s⁻¹. In assay [2], the IC50 is 8.89 ng/mL and the rel. IC50 (IC50, Avelumab/IC50, test molecule) was 1.49. Also, in assay [3], the NF-AT potency assay IC50 (with HSA) worked out at 35.2 ng/mL and the NF-AT potency assay rel. IC50 (IC50, Avelumab/IC50, test molecule) (with HSA) turned out to be 1.11. Besides, in assay [4], the IC50 stood at 4.14 ng/mL and the rel. IC50 (IC50, Avelumab/IC50, test molecule) stood at 0.56. In assay [5], this molecule gave a Kd of 2 nM, a koff of 0.0006 s⁻¹ and a kon of 310000 M⁻¹ s⁻¹.

B3: PRO1476 (scDb-scFv: 33-03-G02 sc03 / 38-02-A04 sc013 / 19-01-H04 sc03) (protein, from a related filing)
chain: DIQMTQSPSSLSASVGDRVTITCQASQSINNVLAWYQQKPGKAPKLLIYRASTLASGVPSRFSGSGSGTDFTLTISSLQPEDFATYYCQSSYGNYGDFGCGTKVTVLGGGGGSQSQLQESGPGLVKPSETLSLTCKASGFSFSSGYDMCWVRQPPGKGLEWIACVVAGSVDITYYASWAKGRVTISKDSSKNQVSLKLSSVTAADTAVYFCARKDAYSDAFNLWGQGTLVTVSSGGGGSGGGGSGGGGSGGGGSFQLTQSPSSLSASVGDRVTITCQASQSINDYLAWYQQKPGKSPKLLIYKASTLASGVPSRFSGSGSGTDFTLTISSLQPEDFATYYCQQGYIITDIDNVFGTGTKVTVLGGGGGSEVQLVESGGGLVQPGGSLRLSCAASGFSFSNSYWICWVRQAPGKCLEWIGCTFVGSSDSTYYANWAKGRFTISRDNSKNTVYLQMNSLRAEDTAVYYCARHPSDAVYGYANNLWGQGTLVTVSSGGGGSGGGGSIQMTQSPSSLSASVGDRVTITCQSSESVYSNNQLSWYQQKPGQPPKLLIYDASDLASGVPSRFSGSGSGTDFTLTISSLQPEDFATYYCAGGFSSSSDTAFGGGTKLTVLGGGGGSGGGGSGGGGSGGGGSEVQLVESGGGLVQPGGSLRLSCAASGFSLSSNAMGWVRQAPGKGLEYIGIISVGGFTYYASWAKGRFTISRDNSKNTVYLQMNSLRAEDTATYFCARDRHGGDSSGAFYLWGQGTLVTVSS
As for B3, in assay [1], the Kd came to 9 pM, the koff turned out to be 3.1e-05 s⁻¹ and the kon amounted to 3.4e+06 M⁻¹ s⁻¹. In assay [2], the IC50 was found to be 9.49 ng/mL and the rel. IC50 (IC50, Avelumab/IC50, test molecule) is 1.1. In assay [3], this molecule yielded an NF-AT potency assay IC50 (with HSA) of 53.5 ng/mL and an NF-AT potency assay rel. IC50 (IC50, Avelumab/IC50, test molecule) (with HSA) of 0.66. Besides, in assay [4], the IC50 worked out at 2.84 ng/mL and the rel. IC50 (IC50, Avelumab/IC50, test molecule) was 0.8. Moreover, in assay [5], the Kd was found to be 1.1 nM, the koff amounted to 0.00037 s⁻¹ and the kon stood at 350000 M⁻¹ s⁻¹.

B4: PRO1432 (scDb-scFv: 33-03-G02 sc18 / 38-02-A04 sc013 / 19-01-H04 sc03) (protein, from a related filing)
chain: DIQMTQSPSSLSASVGDRVTITCQASQSINNVLAWYQQKPGKAPKLLIYRASTLASGVPSRFSGSGSGTDFTLTISSLQPEDFATYYCQSSYGNYGDFGCGTKVTVLGGGGGSQVQLQESGPGLVKPSETLSLTCKASGFSFSSGYDMCWVRQPPGKGLEWIACVVAGSVDITYYASWAKGRVTISKDSSKNQVSLKLSSVTAADTAVYYCARKDAYSDAFNLWGQGTLVTVSSGGGGSGGGGSGGGGSGGGGSIQMTQSPSSLSASVGDRVTITCQASQSINDYLAWYQQKPGKAPKLLIYKASTLASGVPSRFSGSGSGTDFTLTISSLQPEDFATYYCQQGYIITDIDNVFGTGTKVTVLGGGGGSEVQLVESGGGLVQPGGSLRLSCAASGFSFSNSYWICWVRQAPGKCLEWIGCTFVGSSDSTYYANWAKGRFTISRDNSKNTVYLQMNSLRAEDTAVYYCARHPSDAVYGYANNLWGQGTLVTVSSGGGGSGGGGSIQMTQSPSSLSASVGDRVTITCQSSESVYSNNQLSWYQQKPGQPPKLLIYDASDLASGVPSRFSGSGSGTDFTLTISSLQPEDFATYYCAGGFSSSSDTAFGGGTKLTVLGGGGGSGGGGSGGGGSGGGGSEVQLVESGGGLVQPGGSLRLSCAASGFSLSSNAMGWVRQAPGKGLEYIGIISVGGFTYYASWAKGRFTISRDNSKNTVYLQMNSLRAEDTATYFCARDRHGGDSSGAFYLWGQGTLVTVSS
In assay [1], B4 had a Kd of 11 pM, a koff of 4.4e-05 s⁻¹ and an on-rate constant (kon) of 4.2e+06 M⁻¹ s⁻¹. In assay [2], the IC50 was 2.83 ng/mL and the rel. IC50 (IC50, Avelumab/IC50, test molecule) came to 0.99. Also, in assay [3], the NF-AT potency assay IC50 (with HSA) was 18.5 ng/mL and the NF-AT potency assay rel. IC50 (IC50, Avelumab/IC50, test molecule) (with HSA) came to 1.98. Further, in assay [4], the IC50 is 3.26 ng/mL and the rel. IC50 (IC50, Avelumab/IC50, test molecule) stood at 0.43. Also, in assay [5], the Kd is 0.75 nM, the koff worked out at 0.00045 s⁻¹ and the kon is 600000 M⁻¹ s⁻¹.

B5: PRO1482 (scDb-scFv: 37-20-B03 sc09.1 / 38-02-A04 sc013 / 19-01-H04 sc03) (protein, from a related filing)
chain: DIQMTQSPSSLSASVGDRVTITCQASQSINNVLAWYQQKPGKAPKLLIYRASTLASGVPSRFSGSGSGTDFTLTISSLQPEDFATYYCQSSYGNYGDFGCGTKVTVLGGGGGSEVQLVESGGGLVQPGGSLRLSCAASGFSFNSDYWIYWVRQAPGKGLEWIASIYGGSSGNTQYASWAQGRFTISRDNSKNTVYLQMNSLRAEDTAVYFCARGYVDYGGATDLWGQGTLVTVSSGGGGSGGGGSGGGGSGGGGSIQMTQSPASLSASVGDRVTITCQASQSIGTYLAWYQQKPGKPPKLLIYRAFILASGVPSRFSGSGSGTDFTLTISSLQPEDFATYYCQSNFYSDSTTIGPNAFGTGTKVTVLGGGGGSEVQLVESGGGLVQPGGSLRLSCAASGFSFSNSYWICWVRQAPGKCLEWIGCTFVGSSDSTYYANWAKGRFTISRDNSKNTVYLQMNSLRAEDTAVYYCARHPSDAVYGYANNLWGQGTLVTVSSGGGGSGGGGSIQMTQSPSSLSASVGDRVTITCQSSESVYSNNQLSWYQQKPGQPPKLLIYDASDLASGVPSRFSGSGSGTDFTLTISSLQPEDFATYYCAGGFSSSSDTAFGGGTKLTVLGGGGGSGGGGSGGGGSGGGGSEVQLVESGGGLVQPGGSLRLSCAASGFSLSSNAMGWVRQAPGKGLEYIGIISVGGFTYYASWAKGRFTISRDNSKNTVYLQMNSLRAEDTATYFCARDRHGGDSSGAFYLWGQGTLVTVSS
In the case of B5, in assay [1], the Kd came out at 9.8 pM, the off-rate (koff) is 3.3e-05 s⁻¹ and the kon was 3.4e+06 M⁻¹ s⁻¹. Besides, in assay [2], the IC50 was found to be 8.18 ng/mL and the rel. IC50 (IC50, Avelumab/IC50, test molecule) came to 1.51. For the same molecule, in assay [3], the NF-AT potency assay IC50 (with HSA) worked out at 54.8 ng/mL and the NF-AT potency assay rel. IC50 (IC50, Avelumab/IC50, test molecule) (with HSA) stood at 0.68. In assay [4], the IC50 worked out at 1.78 ng/mL and the rel. IC50 (IC50, Avelumab/IC50, test molecule) worked out at 1.24. In assay [5], this molecule gave a Kd of 1.1 nM, a koff of 0.00036 s⁻¹ and a kon of 320000 M⁻¹ s⁻¹.
